In the RNAGym collection of RNA variant scans (doi:10.1101/gr.219683.116):

B1: mRNA-splicing (parent)
chain: AGUUGCUGCUGGGAGCUCCAGCACAGUGAAAUGGACAGAAGGGCAGAGCAA

Variants of: B1
Assay: exon inclusion enrichment index; higher = more inclusion; WT1 exon 5 minigene, HEK293

| Variant | exon inclusion enrichment index |
| --- | --- |
| AGUUCACACAGGGAGCUCUUGCACAGUGAAAUGGACAGAAGGGCAGAGCAA [G5C C6A U7C G8A U10A C19U A20U] | 0.0111 |
| AGUUCACACAGGGAGCUCUGGCACAGUGAAAUGGACAGAAGGGCAGAGCAA [G5C C6A U7C G8A U10A C19U A20G] | 0.0251 |
| AGUUCACACAGGGAGCUCUCGCACAGUGAAAUGGACAGAAGGGCAGAGCAA [G5C C6A U7C G8A U10A C19U A20C] | 0.0561 |
| AGUUCACACAGGGAGCUCCAGCACAGUGAAAUGGACAGACAGGCAGAGCAA [G5C C6A U7C G8A U10A A40C G41A] | 0.0281 |
| AGUUCACACAGGGAGCUCCAGCACAGUGAAAUGGACAGACUGGCAGAGCAA [G5C C6A U7C G8A U10A A40C G41U] | 0.0519 |
| AGUUCACACAGGGAGCUCCAGCACAGUGAAAUGGACAGACCGGCAGAGCAA [G5C C6A U7C G8A U10A A40C G41C] | 0.71 |
| AGUUCACACAGGGAGCUCCAGCACAGUGAAAUGGACAGAGCGGCAGAGCAA [G5C C6A U7C G8A U10A A40G G41C] | 0.666 |
| AGUUCACACAGGGAGCUCCAGCACAGUGAAAUGGACAGAGUGGCAGAGCAA [G5C C6A U7C G8A U10A A40G G41U] | 0.0884 |
| AGUUCACACAGGGAGCUCCAGCACAGUGAAAUGGACAGAGAGGCAGAGCAA [G5C C6A U7C G8A U10A A40G G41A] | 0.0264 |
| AGUUCACACAGGGAGCUUGAGCACAGUGAAAUGGACAGAAGGGCAGAGCAA [G5C C6A U7C G8A U10A C18U C19G] | 0.0165 |
| AGUUCACACAGGGAGCUUAAGCACAGUGAAAUGGACAGAAGGGCAGAGCAA [G5C C6A U7C G8A U10A C18U C19A] | 0.00114 |
| AGUUCACACAGGGAGCUUUAGCACAGUGAAAUGGACAGAAGGGCAGAGCAA [G5C C6A U7C G8A U10A C18U C19U] | 0.00236 |
| AGUUCACACAGGGAGCUCCAGCACAGUGAAAUGGACUGAAGGGCAGAGCAA [G5C C6A U7C G8A U10A A37U] | 0.0984 |
| AGUUCACACAGGGAGCUCCAGGCCAGUGAAAUGGACAGAAGGGCAGAGCAA [G5C C6A U7C G8A U10A C22G A23C] | 0.0525 |
| AGUUCACACAGGGAGCUCCAGGGCAGUGAAAUGGACAGAAGGGCAGAGCAA [G5C C6A U7C G8A U10A C22G A23G] | 0.043 |
| AGUUCACACAGGGAGCUCCAGGUCAGUGAAAUGGACAGAAGGGCAGAGCAA [G5C C6A U7C G8A U10A C22G A23U] | 0.0222 |
| AGUUCACACAGGGAGCUGCAGCACAGUGAAAUGGACAGAAGGGCAGAGCAA [G5C C6A U7C G8A U10A C18G] | 0.097 |
| AGUUCACACAGGGAGCUACAGCACAGUGAAAUGGACAGAAGGGCAGAGCAA [G5C C6A U7C G8A U10A C18A] | 0.0467 |
| AGUUCACACAGGGAGCUUCAGCACAGUGAAAUGGACAGAAGGGCAGAGCAA [G5C C6A U7C G8A U10A C18U] | 0.054 |
| AGUUCACACAGGGAGCUCCAGCACAGUGAAAUGGACAGAAGGGCAGCUCAA [G5C C6A U7C G8A U10A A47C G48U] | 0.0993 |
| AGUUCACACAGGGAGCUCCAGCACAGUGAAAUGGACAGAAGGGCAGCACAA [G5C C6A U7C G8A U10A A47C G48A] | 0.0538 |
| AGUUCACACAGGGAGCUCCAGCACAGUGAAAUGGACAGAAGGGCAGCCCAA [G5C C6A U7C G8A U10A A47C G48C] | 0.224 |
| AGUUCACACAGGGAGCUCCAGCACAGUGAAAUGGACAGAAGGGCUCAGCAA [G5C C6A U7C G8A U10A A45U G46C] | 0.0541 |
| AGUUCACACAGGGAGCUCCAGCACAGUGAAAUGGACAGAAGGGCUAAGCAA [G5C C6A U7C G8A U10A A45U G46A] | 0.0675 |
| AGUUCACACAGGGAGCUCCAGCACAGUGAAAUGGACAGAAGGGCUUAGCAA [G5C C6A U7C G8A U10A A45U G46U] | 0.0227 |
| AGUUCACACAGGGAGGCCCAGCACAGUGAAAUGGACAGAAGGGCAGAGCAA [G5C C6A U7C G8A U10A C16G U17C] | 0.0308 |

| Variant | exon inclusion enrichment index |
| --- | --- |
| AGUUCACACAGGGAGGGCCAGCACAGUGAAAUGGACAGAAGGGCAGAGCAA [G5C C6A U7C G8A U10A C16G U17G] | 0.00731 |
| AGUUCACACAGGGAGGACCAGCACAGUGAAAUGGACAGAAGGGCAGAGCAA [G5C C6A U7C G8A U10A C16G U17A] | 0.181 |
| AGUUCACACAGGGAGCUGAAGCACAGUGAAAUGGACAGAAGGGCAGAGCAA [G5C C6A U7C G8A U10A C18G C19A] | 0.143 |
| AGUUCACACAGGGAGCUGUAGCACAGUGAAAUGGACAGAAGGGCAGAGCAA [G5C C6A U7C G8A U10A C18G C19U] | 0.00896 |
| AGUUCACACAGGGAGCUGGAGCACAGUGAAAUGGACAGAAGGGCAGAGCAA [G5C C6A U7C G8A U10A C18G C19G] | 0.186 |
| AGUUCACACAGGGAGCUCCAGCACAGUGAAAUGGACAGAAGGGCAGUUCAA [G5C C6A U7C G8A U10A A47U G48U] | 0.111 |
| AGUUCACACAGGGAGCUCCAGCACAGUGAAAUGGACAGAAGGGCAGUACAA [G5C C6A U7C G8A U10A A47U G48A] | 0.071 |
| AGUUCACACAGGGAGCUCCAGCACAGUGAAAUGGACAGAAGGGCAGUCCAA [G5C C6A U7C G8A U10A A47U G48C] | 0.0757 |
| AGUUCACACAGGGAGCUCCAGGACAGUGAAAUGGACAGAAGGGCAGAGCAA [G5C C6A U7C G8A U10A C22G] | 0.197 |
| AGUUCACACAGGGAGCUCCAGUACAGUGAAAUGGACAGAAGGGCAGAGCAA [G5C C6A U7C G8A U10A C22U] | 0.0831 |
| AGUUCACACAGGGAGCUCCAGAACAGUGAAAUGGACAGAAGGGCAGAGCAA [G5C C6A U7C G8A U10A C22A] | 0.0834 |
| AGUUCACACAGGGAGCUCAGGCACAGUGAAAUGGACAGAAGGGCAGAGCAA [G5C C6A U7C G8A U10A C19A A20G] | 0.00417 |
| AGUUCACACAGGGAGCUCAUGCACAGUGAAAUGGACAGAAGGGCAGAGCAA [G5C C6A U7C G8A U10A C19A A20U] | 0.00249 |
| AGUUCACACAGGGAGCUCACGCACAGUGAAAUGGACAGAAGGGCAGAGCAA [G5C C6A U7C G8A U10A C19A A20C] | 0.0294 |
| AGUUCACACAGGGAGCUCCAGCACAGUGAAAUGGACAGAAGGGCAGGCCAA [G5C C6A U7C G8A U10A A47G G48C] | 0.0266 |
| AGUUCACACAGGGAGCUCCAGCACAGUGAAAUGGACAGAAGGGCAGGACAA [G5C C6A U7C G8A U10A A47G G48A] | 0.0475 |
| AGUUCACACAGGGAGCUCCAGCACAGUGAAAUGGACAGAAGGGCAGGUCAA [G5C C6A U7C G8A U10A A47G G48U] | 0.00361 |
| AGUUCACACAGGGAGCUCCAGCAACGUGAAAUGGACAGAAGGGCAGAGCAA [G5C C6A U7C G8A U10A C24A A25C] | 0.742 |
| AGUUCACACAGGGAGCUCCAGCACAGUGAAAUGGACAGCGGGGCAGAGCAA [G5C C6A U7C G8A U10A A39C A40G] | 0.142 |
| AGUUCACACAGGGAGCUCCAGCACAGUGAAAUGGACAGCUGGGCAGAGCAA [G5C C6A U7C G8A U10A A39C A40U] | 0.0879 |
| AGUUCACACAGGGAGCUCCAGCACAGUGAAAUGGACAGCCGGGCAGAGCAA [G5C C6A U7C G8A U10A A39C A40C] | 0.334 |
| AGUUCACACAGGGAGCUCCAGCAAAGUGAAAUGGACAGAAGGGCAGAGCAA [G5C C6A U7C G8A U10A C24A] | 0.105 |
| AGUUCACACAGGGAGCUCCAGUCCAGUGAAAUGGACAGAAGGGCAGAGCAA [G5C C6A U7C G8A U10A C22U A23C] | 0.0379 |
| AGUUCACACAGGGAGCUCCAGUGCAGUGAAAUGGACAGAAGGGCAGAGCAA [G5C C6A U7C G8A U10A C22U A23G] | 0.114 |
| AGUUCACACAGGGAGCUCCAGUUCAGUGAAAUGGACAGAAGGGCAGAGCAA [G5C C6A U7C G8A U10A C22U A23U] | 0.0622 |
